The source of these data is patent US20100150950A1, “HUMAN ANTIBODIES THAT BIND CD70 AND USES THEREOF” (Medarex, Inc., priority 2006, published 2010).

Substitutions are numbered along the chain they refer to.

Test [1] concerns the target T1, human CD70 expressed on the cell surface (human, UniProt P32970 1-193).
T1 construct: also called full length CD70 on transfected CHO cells
T1 sequence: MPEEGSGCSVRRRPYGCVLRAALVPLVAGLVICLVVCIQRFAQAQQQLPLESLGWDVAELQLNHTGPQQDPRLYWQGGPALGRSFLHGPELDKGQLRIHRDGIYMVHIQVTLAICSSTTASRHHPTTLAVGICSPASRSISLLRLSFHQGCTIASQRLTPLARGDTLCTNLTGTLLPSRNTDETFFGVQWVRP
Briefly: flow cytometry titration on A498 cells, PE anti-human IgG. The protocol:
(§1) Binding of the anti-CD70 human monoclonal antibodies was assessed by incubating 5×10⁵ cells with antibody at a starting concentration of 50 μg/ml and serially diluting the antibody at a 1:3 dilution. The cells were washed and binding was detected with a PE-labeled anti-human IgG Ab. Flow cytometric analyses were performed using a FACSCalibur flow cytometry (Becton Dickinson, San Jose, Calif.).

Test [2] has as its target T1, human CD70 expressed on the cell surface. Briefly: flow cytometry titration on 786-O cells, PE anti-human IgG. The protocol:
as §1

Test [3] has the same target. Briefly: Scatchard analysis, 125I-labelled antibody on CHO cells transfected with full length CD70. Here is the method:
CHO cells were transfected with full length CD70 using standard techniques and grown in RPMI media containing 10% fetal bovine serum (FBS). The cells were trypsinized and washed once in Tris based binding buffer (24 mM Tris pH 7.2, 137 mM NaCl, 2.7 mM KCl, 2 mM Glucose, 1 mM CaCl₂, 1 mM MgCl₂, 0.1% BSA) and the cells were adjusted to 2×10⁶ cells/ml in binding buffer. Millipore plates (MAFB NOB) were coated with 1% nonfat dry milk in water and stored a 4° C. overnight. The plates were washed three times with 0.2 ml of binding buffer. Fifty microliters of buffer alone was added to the maximum binding wells (total binding). Twenty-five microliters of buffer alone was added to the control wells (non-specific binding). […] Varying concentrations of unlabeled antibody at 100 fold excess was added in a volume of 25 μl to control wells and 25 μl of CD70 transfected CHO cells (2×10⁶ cells/ml) in binding buffer were added to all wells. The plates were incubated for 2 hours at 200 RPM on a shaker at 4° C. At the completion of the incubation the Millipore plates were washed three times with 0.2 ml of cold wash buffer (24 mM Tris pH 7.2, 500 mM NaCl, 2.7 mM KCl, 2 mM Glucose, 1 mM CaCl₂, 1 mM MgCl₂, 0.1% BSA.). The filters were removed and counted in a gamma counter. Evaluation of equilibrium binding was performed using single site binding parameters with the Prism software (San Diego, Calif.).

The target in test [4] is T2, recombinant human CD70 fused with a dual myc-His tag (human, UniProt P32970 39-193).
T2 construct: also called recombinant myc-tagged CD70; CD70-myc-his; not shown: dual myc-His tag
T2 sequence: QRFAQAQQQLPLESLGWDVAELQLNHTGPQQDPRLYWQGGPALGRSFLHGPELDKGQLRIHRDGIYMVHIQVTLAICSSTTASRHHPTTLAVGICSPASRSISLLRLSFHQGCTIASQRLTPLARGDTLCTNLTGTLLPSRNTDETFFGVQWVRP
Briefly: ELISA on plate-coated recombinant myc-tagged CD70, anti-human IgG-HRP detection. Here is the method: Standard ELISA procedures were performed. The anti-CD70 human monoclonal antibodies were added at a concentration of 1 μg/ml and titrated down at 1:2 serial dilutions. Goat-anti-human IgG (Fc or kappa chain-specific) polyclonal antibody conjugated with horseradish peroxidase (HRP) was used as secondary antibody.

Test [5] has as its target T1, human CD70 expressed on the cell surface. Briefly: cell-based or functional assay.
For test [6] the target is unchanged. Briefly: flow cytometry on Raji cells, MFI. Here is the method: (§2) Binding of the anti-CD70 human monoclonal antibodies was assessed by incubating 5×10⁵ cells with antibody at a starting concentration of 50 μg/ml and serially diluting the antibody at a 1:3 dilution. An isotype control antibody was used as a negative control. The cells were washed and binding was detected with a PE-labeled anti-human IgG Ab. Flow cytometric analyses were performed using a FACSCalibur flow cytometry (Becton Dickinson, San Jose, Calif.).

Test [7] has the same target. Briefly: flow cytometry on Granta 519 cells, MFI. Here is the method: as §2
For test [8], the system named is CD70-mediated CD27 signaling induced proliferation of human CD3+ T cells. Briefly: Functional blocking of CD70 costimulated T cell proliferation. It counts as cell-based. The following applies: anti-CD3 (OKT3), CHO cells with mouse CD32 and human CD70, 3 days. An excerpt:
This example describes the analysis and characterization of the functional blocking of CD70 costimulated T cell proliferation by anti-CD70 antibodies 1F4 IgG1, 1F4 IgG4, 2H5, 2H5 F(ab′)2 and 2H5 Fab.
Human CD3^+ T cells were isolated from cryopreserved PBMC using MACS CD3 Microbeads and then cultured at 2×10^6 cells/ml in RPMI-1640 complete media+10% heat inactivated FCS in the presence of Mitomycin C treated CHO cells stably transfected with both mouse CD32 and human CD70. Cells were stimulated with […] anti-CD3 (clone OKT3) for 3 days, 1 μCi/well of ^3H-Thymidine was added for 6 hours and the cells were harvested. Proliferation was measured as CPM incorporated by scintillation counting.

For test [9], the target named is human CD16 (FcRγIII) on effector cells (human, UniProt P08637 17-254). Briefly: cell-based or functional assay.
human CD16 (FcRγIII) on effector cells, sequence (P08637 17-254): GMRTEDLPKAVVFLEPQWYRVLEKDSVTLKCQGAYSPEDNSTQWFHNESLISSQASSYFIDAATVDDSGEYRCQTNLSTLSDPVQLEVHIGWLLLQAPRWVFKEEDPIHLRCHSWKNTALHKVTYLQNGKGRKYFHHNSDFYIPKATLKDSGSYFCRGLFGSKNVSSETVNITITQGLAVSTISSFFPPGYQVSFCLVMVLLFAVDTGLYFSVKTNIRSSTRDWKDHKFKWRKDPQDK
Test [10] addresses T1, human CD70 expressed on the cell surface. Briefly: flow cytometry on 786-0 cells, goat F(ab')2 anti-human IgG(Fc)-PE. The protocol: The cells were incubated for 30 minutes on ice, washed twice in staining buffer and stained with Goat F(ab)′2-anti-human-IgG(Fc)-PE conjugate for 30 minutes. The cells were washed and resuspended in staining buffer for analysis by flow cytometry.

The next test deals with T3, CD70 (Homo sapiens, UniProt P32970).
T3 sequence (P32970 1-193): T1 sequence
Briefly: Epitope binding experiments using BIAcore. Here is the method:
Such cross-competing antibodies can be identified based on their ability to cross-compete with 2H5, 10B4, 8B5, 18E7, 69A7, 69A7Y or 1F4 in standard CD70 binding assays. For example, standard ELISA assays can be used in which a recombinant human CD70 protein is immobilized on the plate, one of the antibodies is fluorescently labeled and the ability of non-labeled antibodies to compete off the binding of the labeled antibody is evaluated. Additionally or alternatively, BIAcore analysis can be used to assess the ability of the antibodies to cross-compete.

B1: anti-CD70 human monoclonal antibody 10B4 (antibody, V domains shown)
VH: QIQLVESGGGVVQPGRSLRLSCAASGFTFGYYAMHWVRQAPGKGLEWVAVISYDGSIKYYADSVKGRFTISRDNSKNTLYLQMNSLRAEDTAVYYCAREGPYSNYLDYWGQGTLVTVSS
VL: AIQLTQSPSSLSASVGDRVTITCRASQGISSALAWYQQKPGKAPKFLIYDASSLESGVPSRFSGSGSGTDFTLTISSLQPEDFATYYCQQFNSYPFTFGPGTKVDIK
notes: Human IgG from hybridoma
As to B1, the “EC50 (read off the curve)” value in [1] is around 4 nM; in test [2], around 2 nM; in test [4], around 0.05 µg/mL. Moreover, in [3], the Kd was around 1.6 nM.

B2: anti-CD70 human monoclonal antibody 2H5 (antibody, IgG1, V domains shown)
VH: QVQLVESGGGVVQPGRSLRLSCAASGFTFSSYIMHWVRQAPGKGLEWVAVISYDGRNKYYADSVKGRFTISRDNSKNTLYLQMNSLRAEDTAVYYCARDTDGYDFDYWGQGTLVTVSS
VL: EIVLTQSPATLSLSPGERATLSCRASQSVSSYLAWYQQKPGQAPRLLIYDASNRATGIPARFSGSGSGTDFTLTISSLEPEDFAVYYCQQRTNWPLTFGGGTKVEIK
notes: Human IgG with kappa light chain; also called HuMAb 2H5; 2H5 IgG1
For the molecule B2, in test [5], the “EC50 of decrease in ^3H-thymidine incorporation, Hum-Zap internalization assay on 786-O cells” value came to 0.9 nM. Further, the concentration giving a half-maximal response (EC50) in test [6] and in [7] was 1.33 nM throughout. Besides, the 50% effective concentration (EC50 (read off the curve)) is around 8 nM in test [1], around 5 nM in test [2] and around 0.06 µg/mL in [4]. In test [3], this molecule yielded a dissociation constant Kd of around 2.1 nM.

B3: 2H5 Fab: Fab fragment of anti-CD70 antibody 2H5 (antibody, V domains shown)
VH: B2 VH
VL: B2 VL
Regarding B3, the “functional blocking of CD70 costimulated T cell proliferation” value in test [8] was “complete lack of functional blocking activity”.

B4: nonfucosylated anti-CD70 human monoclonal antibody 2H5 (antibody, V domains shown)
VH: B2 VH
VL: B2 VL
notes: also called 2H5 NF; 2H5nf
On to B4, for which, in test [9], the “amount of anti-CD16 antibody 3G8 needed to reverse the inhibition of peptide specific CD8+ T cell expansion, against 2H5” value is around 1000 fold and the “potency in lysis of activated human B cells against 2H5, ^51Cr-release ADCC assay with anti-CD16 antibody 3G8” value was around 10 fold. For the same molecule, in test [10], the concentration for a half-maximal effect (EC50 (read off the curve)) is around 0.2 µg/mL.

B5: 69A7Y: same as 69A7 with C to Y mutation at VH position 100; VH SEQ ID NO:73, VL SEQ ID NO:11 (antibody, listed as Homo sapiens, V domains shown)
VH: QVQLQESGPGLVKPSETLSLTCTVSGGSVSSDYYYWSWIRQPPGKGLEWLGYIYYSGSTNYNPSLKSRVTISVDTSKNQFSLKLRSVTTADTAVYYCARGDGDYGGNYFDYWGQGTLVTVSS
VL: B2 VL with Y49F, T92S
Regarding B5, the “epitope on CD70” value in the test with CD70 is on record as “distinct epitopes”.

B6: 2H5 F(ab′)2: F(ab′)2 fragment of anti-CD70 antibody 2H5 (antibody, V domains shown)
VH: B2 VH
VL: B2 VL
Consider B6, for which, in test [8], the “functional blocking of CD70 costimulated T cell proliferation” value was “reduced functional blocking efficacy”.

B7: anti-CD70 human monoclonal antibody 8B5 (antibody, V domains shown)
VH: QVQLVESGGGVVQPGRSLRLSCATSGFTFSDYGMHWVRQAPGKGLEWVAVIWYDGSNKYYADSVKGRFTISRDNSKKTLSLQMNSLRAEDTAVYYCARDSIMVRGDYWGQGTLVTVSS
VL: DIQMTQSPSSLSASVGDRVTITCRASQGISSWLAWYQQKPEKAPKSLIYAASSLQSGVPSRFSGSGSGTDFTLTISSLQPEDFATYYCQQYNSYPLTFGGGTKVEIK
notes: Human IgG from hybridoma
Turning to B7, the Kd in test [3] was around 5.1 nM.

B8: anti-CD70 human monoclonal antibody 18E7 (antibody, V domains shown)
VH: B7 VH with T24A, Y32H, K77N, S80Y
VL: B7 VL
notes: Human IgG from hybridoma
For B8, in [2], the “EC50 (read off the curve)” value was around 7 nM. Besides, the equilibrium dissociation constant (Kd) in test [3] was around 1.5 nM.
